Assay results from the Immune Epitope Database (IEDB).

Experiments:
Test in all cases: IEDB peptide-MHC binding, purified MHC/competitive/radioactivity; filed as Kd, often an IC50 or EC50 that approximates it; ≥ and ≤ were set here for values at or beyond the usual limits of such assays
HLA-A*02:02 = target: HLA-A*02:02
HLA-A*02:03 = target: HLA-A*02:03
HLA-A*02:06 = target: HLA-A*02:06
HLA-A*03:01 = target: HLA-A*03:01
HLA-A*11:01 = target: HLA-A*11:01
HLA-A*68:01 = target: HLA-A*68:01
HLA-A*33:01 = target: HLA-A*33:01
HLA-A*31:01 = target: HLA-A*31:01
[1] = source organism: Vaccinia virus WR
[2] = source organism: Dengue virus 4 Philippines/H241/1956
[3] = source organism: SARS coronavirus Tor2
[4] = source organism: Vaccinia virus Copenhagen

Row | Sequence | Kd (HLA-A*02:02; [1]) | Kd (HLA-A*02:03; [1]) | Kd (HLA-A*02:06; [1]) | further results
1 | MAEFEDQLV | 0.165 µM | 0.641 µM | 5.51 µM | 
2 | GQIHLAIMAV |  |  |  | Kd (HLA-A*02:06; [2]): 0.00133 µM
3 | ITGNKVKTEL | ≥ 70 µM | ≥ 70.4 µM | ≥ 69.8 µM | 
4 | WQIEKASLI |  |  |  | Kd (HLA-A*02:06; [2]): 0.0435 µM
5 | TLYAVATTVI |  |  |  | Kd (HLA-A*02:03; source organism: Dengue virus 1 Brazil/97-11/1997): 0.195 µM
6 | RAGYSIVEL | 4.94 µM | 5.39 µM | 5.07 µM | 
7 | RLRQDTEDI | 0.23 µM | 0.387 µM | 4.58 µM | 
8 | SIGFEARIV | 10.1 µM | 0.575 µM | 1.31 µM | 
9 | YTISSESLV | 0.522 µM | 0.0376 µM | 0.0536 µM | 
10 | AVTLNRIKIA | 1.72 µM | 1.29 µM | 2.29 µM | 
11 | ETNIGCAVNT | ≥ 70 µM | ≥ 37 µM | ≥ 69.8 µM | 
12 | LLFLVLIMLI |  |  |  | Kd (HLA-A*02:02; [3]): 0.447 µM; Kd (HLA-A*02:03; [3]): 3.15 µM; Kd (HLA-A*02:06; [3]): 8.3 µM
13 | TLNEDLLEI |  |  |  | Kd (HLA-A*02:02; [3]): 0.00145 µM; Kd (HLA-A*02:03; [3]): 0.00224 µM; Kd (HLA-A*02:06; [3]): 0.0563 µM
14 | DLNSFEQLCI |  |  |  | Kd (HLA-A*02:06; source organism: Homo sapiens): ≥ 128 µM
15 | DVNEEYTEAA | ≥ 46.3 µM | ≥ 28.8 µM | ≥ 59.2 µM | 
16 | VIRNEVNDT | 19.9 µM | 0.82 µM | ≥ 77.1 µM | 
17 | VLTILYYGA | 0.00132 µM | 0.0175 µM | 6.24 µM | 
18 | GIDTSNNIA | ≥ 49.7 µM | ≥ 71.4 µM | ≥ 25.2 µM | 
19 | AAVTLNRIKI | 0.83 µM | 3.49 µM | 1.92 µM | 
20 | GLESIEQNLT | 7.02 µM | ≥ 61.3 µM | ≥ 69.8 µM | 
21 | NIVASVNMV |  |  |  | Kd (HLA-A*02:03; source organism: Dengue virus 3 Martinique/1243/1999): 0.0829 µM
22 | NTLIQYRQQL | 6.37 µM | 10.1 µM | ≥ 20.9 µM | 
23 | KVIGLYGNGV |  |  |  | Kd (HLA-A*02:06; [2]): 0.0123 µM
24 | KVEKYLPEVI | 12.1 µM | 12.4 µM | 0.734 µM | 
25 | LIYYQNEVT | 14 µM | 5.21 µM | 8.51 µM | 
26 | SIISLFYTFA | 0.111 µM | 0.0281 µM | 0.0936 µM | 
27 | YTVEFDRDKV | 0.0826 µM | 0.154 µM | 0.022 µM | 

Row | Sequence | Kd (HLA-A*02:02; [1]) | Kd (HLA-A*02:03; [1]) | Kd (HLA-A*02:06; [1]) | further results
28 | CTINVNSLA | 1.04 µM | 1.61 µM | 0.248 µM | 
29 | IVAMLLTHGA | 1.16 µM | 0.153 µM | 0.0822 µM | 
30 | FLPQIGGEA | 0.0211 µM | 0.121 µM | 0.0958 µM | 
31 | FIDRGSIKI | 9.72 µM | 12.2 µM | 4.03 µM | 
32 | IVSRSSRGV | 0.264 µM | 13.2 µM | 0.476 µM | 
33 | HINDQKFDDV | 5.86 µM | 1.16 µM | 1.19 µM | 
34 | QMAGVEVRYI | 0.000208 µM | 0.000138 µM | 0.0448 µM | 
35 | TLLNETAKVI | 2.86 µM | 2.13 µM | 8.55 µM | 
36 | YVLGIFLRKL |  |  |  | Kd (HLA-A*02:06; [2]): 0.0326 µM
37 | PTWLGAAITL | 1.36 µM | 1.01 µM | 1.77 µM | 
38 | VQIENLEYTV |  |  |  | Kd (HLA-A*02:06; [2]): 0.0044 µM
39 | GLVSLLGSA |  |  |  | Kd (HLA-A*02:03; [2]): 0.00412 µM
40 | ETVKMGAFM | 15 µM | 7.43 µM | ≥ 40.4 µM | 
41 | SMKGENVFI | 0.00548 µM | 0.0189 µM | 13.7 µM | 
42 | IISTDQDTML | 0.451 µM | 1.81 µM | 0.666 µM | 
43 | QQFANVISKI | 0.0515 µM | 0.0017 µM | 0.863 µM | 
44 | GIRCVSNLDI | ≥ 20.1 µM | 3.87 µM | ≥ 32.9 µM | 
45 | ILNFLDWIK |  |  |  | Kd (HLA-A*03:01; [4]): 0.189 µM; Kd (HLA-A*11:01; [4]): 0.155 µM; Kd (HLA-A*68:01; [4]): 0.158 µM; Kd (HLA-A*33:01; [4]): 1.29 µM; Kd (HLA-A*31:01; [4]): 0.427 µM
46 | YLRLYIILA |  |  |  | Kd (HLA-A*02:02; [4]): 0.00826 µM; Kd (HLA-A*02:03; [4]): 0.0524 µM; Kd (HLA-A*02:06; [4]): 4.18 µM
47 | KIDKLTFQI | 0.141 µM | 10.6 µM | 0.0419 µM | 
48 | TINVNSLALK |  |  |  | Kd (HLA-A*03:01; [1]): 0.0173 µM; Kd (HLA-A*11:01; [1]): 0.0187 µM; Kd (HLA-A*68:01; [1]): 0.0062 µM; Kd (HLA-A*33:01; [1]): 4 µM; Kd (HLA-A*31:01; [1]): 1.12 µM
49 | PASKKESVI | 1.35 µM | 1.76 µM | 10.3 µM | 
50 | KSIENKHQR |  |  |  | Kd (HLA-A*03:01; [1]): 12.6 µM; Kd (HLA-A*11:01; [1]): 0.0294 µM; Kd (HLA-A*68:01; [1]): 0.1 µM; Kd (HLA-A*33:01; [1]): 1.08 µM; Kd (HLA-A*31:01; [1]): 0.00155 µM
51 | LLNETAKVI | 0.319 µM | 0.0714 µM | 15.4 µM | 
52 | ETDDDGNYPL | 3.59 µM | ≥ 28.2 µM | 1.16 µM | 
53 | DIFMRDWNSK |  |  |  | Kd (HLA-A*03:01; [1]): ≥ 70.1 µM; Kd (HLA-A*11:01; [1]): 4.23 µM; Kd (HLA-A*68:01; [1]): 0.0742 µM; Kd (HLA-A*33:01; [1]): 0.548 µM; Kd (HLA-A*31:01; [1]): 12.4 µM
54 | ITSTKTIEY |  |  |  | Kd (HLA-A*03:01; [1]): 0.122 µM; Kd (HLA-A*11:01; [1]): 0.434 µM; Kd (HLA-A*68:01; [1]): 1.73 µM; Kd (HLA-A*33:01; [1]): ≥ 20.9 µM; Kd (HLA-A*31:01; [1]): 15.1 µM
